Biological target: mouse IL-17F/IL-17A heterodimer (mouse)
Assay: cell-based or functional assay

Chain of mouse IL-17F/IL-17A heterodimer (mouse) (Q62386 26-158, chain 1 of 2): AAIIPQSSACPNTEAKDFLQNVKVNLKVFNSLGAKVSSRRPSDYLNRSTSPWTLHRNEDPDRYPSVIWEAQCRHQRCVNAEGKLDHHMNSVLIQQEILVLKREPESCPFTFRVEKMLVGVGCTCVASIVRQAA
Chain of mouse IL-17F/IL-17A heterodimer (mouse) (Q7TNI7 29-161, chain 2 of 2, further chain): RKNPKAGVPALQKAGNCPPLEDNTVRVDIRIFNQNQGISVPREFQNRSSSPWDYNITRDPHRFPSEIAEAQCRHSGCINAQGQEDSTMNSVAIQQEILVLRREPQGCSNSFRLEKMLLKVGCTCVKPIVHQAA

anti-mouse IL-17A antibody 50104 (R&D Systems)
decrease in CXCL1 production by MLE-12 cells induced by 200 ng/ml mIL-17F/IL-17A with 80 µg/ml antibody: 85%
